From patent publication US20030072752A1 (GENERAL HOSPITAL CORPORATION A MASSACHUSETTS, published 2003) come the findings set out here.

For assay [1], the target named is T1, bovine cathepsin L (bovine, UniProt P25975 118-334, limits assumed).
T1 construct: also called chatepsin L
The experiment in a line: enzyme inhibition (method not restated here).

The target in the next assay is papain (UniProt P00784). The experiment in a line: enzyme inhibition, Dixon plots at different substrate concentrations (BANA).
Assay [2] concerns the target T1, bovine cathepsin L. The experiment in a line: enzyme inhibition, Dixon plots at different substrate concentrations (Z-Phe-Arg-MCA).
In assay [3] the target is T1, bovine cathepsin L. The experiment in a line: enzyme inhibition (method and origin of the value not stated).

T1 sequence (P25975 118-334 limits assumed): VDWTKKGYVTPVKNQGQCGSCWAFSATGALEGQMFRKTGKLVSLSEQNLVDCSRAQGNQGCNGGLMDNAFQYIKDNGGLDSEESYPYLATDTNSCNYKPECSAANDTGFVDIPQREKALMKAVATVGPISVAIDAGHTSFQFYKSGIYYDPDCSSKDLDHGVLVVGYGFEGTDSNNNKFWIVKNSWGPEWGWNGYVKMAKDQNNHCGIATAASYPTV
papain, sequence (P00784 134-345 limits assumed): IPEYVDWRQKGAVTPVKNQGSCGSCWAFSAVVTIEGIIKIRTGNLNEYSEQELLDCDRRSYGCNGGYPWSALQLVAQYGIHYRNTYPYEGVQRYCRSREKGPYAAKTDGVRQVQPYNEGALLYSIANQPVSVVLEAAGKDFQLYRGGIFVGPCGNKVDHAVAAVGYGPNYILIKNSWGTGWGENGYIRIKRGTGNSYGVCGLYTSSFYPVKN

By Ki is commonly meant a dissociation constant, usually derived from enzyme kinetics or from competition with a known ligand. Lower therefore signals a stronger hold on the target. For “psoriastatin preparation (purified from psoriatic scale extract)”, the values for the inhibitory constant (Ki) with bovine cathepsin L [1], in the assay with papain and in the assay with bovine cathepsin L [2] were 5.9 nM, 1.68 nM and 1.9 nM, respectively.

B1: squamous cell carcinoma-antigen (SCC-A) (other, UniProt P29508 1-390, looked up)
chain: MNSLSEANTKFMFDLFQQFRKSKENNIFYSPISITSALGMVLLGAKDNTAQQIKKVLHFDQVTENTTGKAATYHVDRSGNVHHQFQKLLTEFNKSTDAYELKIANKLFGEKTYLFLQEYLDAIKKFYQTSVESVDFANAPEESRKKINSWVESQTNEKIKNLIPEGNIGSNTTLVLVNAIYFKGQWEKKFNKEDTKEEKFWPNKNTYKSIQMMRQYTSFHFASLEDVQAKVLEIPYKGKDLSMIVLLPNEIDGLQKLEEKLTAEKLMEWTSLQNMRETRVDLHLPRFKVEESYDLKDTLRTMGMVDIFNGDADLSGMTGSRGLVLSGVLHKAFVEVTEEGAEAAAATAVVGFGSSPASTNEEFHCNHPFLFFIRQNKTNSILFYGRFSSP
In turn, B1 showed a Ki with bovine cathepsin L [3] of 0.067 nM.
